Tested on: Fes; GST-cortactin (residues 382–550)
Experiment: In vivo kinase assay: Fes autophosphorylation and GST-cortactin phosphorylation in transfected HEK293T cells
Type: cell-based, human
Settings: full-length Flag-Fes, HEK293T, 24 hr, western blot anti-pTyr; in words
Text: To pursue the relevance of the observed interdomain interactions, we studied the effects of mutating residues in the SH2-kinase interface on human Fes activity. To this end, we monitored Fes autophosphorylation and transphosphorylation activity in transfected cells, using cortactin (residues 382–550) fused to GST as an exogenous substrate (Figures 2A and 2B). In an effort to perturb the close interaction between the SH2 and kinase domains, we mutated the conserved glycine residue (G463) located in the tightly packed interface between the SH2 N terminus and the kinase β4/β5 loop to valine (mutant G/V). Introducing this bulky side chain would be expected to sterically hinder alignment of the SH2 and kinase domains, resulting in an altered domain packing. Wild-type (WT) and G/V mutant full-length human Fes, each with an N-terminal Flag epitope, were expressed in HEK293T cells together with GST-cortactin.
Wild-type p130^Gag-Fps and the RX15m and AX9m mutants ([Stone et al., 1984]) were subcloned into the vector pRK5-myc ([Winberg et al., 2000]). Full-length human Fes was cloned into the vector pCMV7.1-3xFlag (Sigma, St. Louis, MO). Site-directed mutagenesis was performed using the QuickChange® II XL Kit (Stratagene, La Jolla, CA) following the manufacturer's directions. A GST-tagged C-terminal fragment of human cortactin (residues 382–550, accession Q14247) was prepared by PCR from cDNA (accession BC008799) and cloned into pEBG vector (gift from C. Duckett, University of Michigan Medical School, Ann Arbor).
HEK293T cells were maintained in Dulbecco's modified Eagle's medium supplemented with 10% (vol/vol) fetal bovine serum, 100 units/ml penicillin G sodium, and 100 μg/ml streptomycin and incubated at 37°C, 5% CO2.
Flag-tagged Fes or Myc-tagged p130^Gag-Fps and mutants thereof were cotransfected with GST-cortactin into HEK293T cells. After 24 hr, cells were lysed with NP-40 cell lysis buffer (50 mM Tris-HCl [pH 7.5], 150 mM NaCl, 1% NP-40, and 1 mM EDTA) that contained 1 mM phenylmethylsulfonyl fluoride, 10 μg/ml leupeptin, 10 μg/ml aprotinin, and 10 μg/ml pepstatin A. Cell lysates, normalized for protein concentration, were used in anti-Flag M2 antibody-agarose (Sigma) or anti-Myc antibody immunoprecipitations or glutathione sepharose affinity precipitations. Associated proteins were resolved using SDS-PAGE and analyzed by western blotting using anti-Flag M2 (Sigma), anti-c-Myc 9E10 (Santa Cruz), HRP-conjugated anti-GST (Santa Cruz), or anti-pTyr 4G10 (Upstate) antibodies.

B1: EE/KK: Fes double mutant, E469 and E472 to lysine (protein)
chain: WYHGAIPRAKVAKLLVHSGDFLVRESQGKQEYVLSVLWDGLPRHFIIQSLDNLYRLEGEGFPSIPLLIDHLLSTQQPLTKKSGVVLHRAV
Fes kinase activity (autophosphorylation and cortactin phosphorylation): strongly reduced Fes kinase activity

B2: WT: Wild-type full-length human Fes with N-terminal Flag epitope (protein, UniProt P07332 1-822, looked up)
chain: MGFSSELCSPQGHGVLQQMQEAELRLLEGMRKWMAQRVKSDREYAGLLHHMSLQDSGGQSRAISPDSPISQSWAEITSQTEGLSRLLRQHAEDLNSGPLSKLSLLIRERQQLRKTYSEQWQQLQQELTKTHSQDIEKLKSQYRALARDSAQAKRKYQEASKDKDRDKAKDKYVRSLWKLFAHHNRYVLGVRAAQLHHQHHHQLLLPGLLRSLQDLHEEMACILKEILQEYLEISSLVQDEVVAIHREMAAAAARIQPEAEYQGFLRQYGSAPDVPPCVTFDESLLEEGEPLEPGELQLNELTVESVQHTLTSVTDELAVATEMVFRRQEMVTQLQQELRNEEENTHPRERVQLLGKRQVLQEALQGLQVALCSQAKLQAQQELLQTKLEHLGPGEPPPVLLLQDDRHSTSSSEQEREGGRTPTLEILKSHISGIFRPKFSLPPPLQLIPEVQKPLHEQLWYHGAIPRAEVAELLVHSGDFLVRESQGKQEYVLSVLWDGLPRHFIIQSLDNLYRLEGEGFPSIPLLIDHLLSTQQPLTKKSGVVLHRAVPKDKWVLNHEDLVLGEQIGRGNFGEVFSGRLRADNTLVAVKSCRETLPPDLKAKFLQEARILKQYSHPNIVRLIGVCTQKQPIYIVMELVQGGDFLTFLRTEGARLRVKTLLQMVGDAAAGMEYLESKCCIHRDLAARNCLVTEKNVLKISDFGMSREEADGVYAASGGLRQVPVKWTAPEALNYGRYSSESDVWSFGILLWETFSLGASPYPNLSNQQTREFVEKGGRLPCPELCPDAVFRLMEQCWAYEPGQRPSFSTIYQELQSIRKRHR
modifications: full-length N-terminal Flag tag
Fes kinase activity (autophosphorylation and cortactin phosphorylation): active

B3: E472K: Fes E472K mutant (protein, UniProt P07332 1-822, looked up, variant E472K)
Tyrosine-protein kinase …: MGFSSELCSPQGHGVLQQMQEAELRLLEGMRKWMAQRVKSDREYAGLLHHMSLQDSGGQSRAISPDSPISQSWAEITSQTEGLSRLLRQHAEDLNSGPLSKLSLLIRERQQLRKTYSEQWQQLQQELTKTHSQDIEKLKSQYRALARDSAQAKRKYQEASKDKDRDKAKDKYVRSLWKLFAHHNRYVLGVRAAQLHHQHHHQLLLPGLLRSLQDLHEEMACILKEILQEYLEISSLVQDEVVAIHREMAAAAARIQPEAEYQGFLRQYGSAPDVPPCVTFDESLLEEGEPLEPGELQLNELTVESVQHTLTSVTDELAVATEMVFRRQEMVTQLQQELRNEEENTHPRERVQLLGKRQVLQEALQGLQVALCSQAKLQAQQELLQTKLEHLGPGEPPPVLLLQDDRHSTSSSEQEREGGRTPTLEILKSHISGIFRPKFSLPPPLQLIPEVQKPLHEQLWYHGAIPRAEVAKLLVHSGDFLVRESQGKQEYVLSVLWDGLPRHFIIQSLDNLYRLEGEGFPSIPLLIDHLLSTQQPLTKKSGVVLHRAVPKDKWVLNHEDLVLGEQIGRGNFGEVFSGRLRADNTLVAVKSCRETLPPDLKAKFLQEARILKQYSHPNIVRLIGVCTQKQPIYIVMELVQGGDFLTFLRTEGARLRVKTLLQMVGDAAAGMEYLESKCCIHRDLAARNCLVTEKNVLKISDFGMSREEADGVYAASGGLRQVPVKWTAPEALNYGRYSSESDVWSFGILLWETFSLGASPYPNLSNQQTREFVEKGGRLPCPELCPDAVFRLMEQCWAYEPGQRPSFSTIYQELQSIRKRHR
Fes kinase activity (autophosphorylation and cortactin phosphorylation): not significantly impaired

B4: EER/KKE: Fes triple mutant: EE/KK plus R609 in αC helix to glutamate (protein, UniProt P07332 1-822, looked up, variant E469K E472K R609E)
Tyrosine-protein kinase …: MGFSSELCSPQGHGVLQQMQEAELRLLEGMRKWMAQRVKSDREYAGLLHHMSLQDSGGQSRAISPDSPISQSWAEITSQTEGLSRLLRQHAEDLNSGPLSKLSLLIRERQQLRKTYSEQWQQLQQELTKTHSQDIEKLKSQYRALARDSAQAKRKYQEASKDKDRDKAKDKYVRSLWKLFAHHNRYVLGVRAAQLHHQHHHQLLLPGLLRSLQDLHEEMACILKEILQEYLEISSLVQDEVVAIHREMAAAAARIQPEAEYQGFLRQYGSAPDVPPCVTFDESLLEEGEPLEPGELQLNELTVESVQHTLTSVTDELAVATEMVFRRQEMVTQLQQELRNEEENTHPRERVQLLGKRQVLQEALQGLQVALCSQAKLQAQQELLQTKLEHLGPGEPPPVLLLQDDRHSTSSSEQEREGGRTPTLEILKSHISGIFRPKFSLPPPLQLIPEVQKPLHEQLWYHGAIPRAKVAKLLVHSGDFLVRESQGKQEYVLSVLWDGLPRHFIIQSLDNLYRLEGEGFPSIPLLIDHLLSTQQPLTKKSGVVLHRAVPKDKWVLNHEDLVLGEQIGRGNFGEVFSGRLRADNTLVAVKSCRETLPPDLKAKFLQEAEILKQYSHPNIVRLIGVCTQKQPIYIVMELVQGGDFLTFLRTEGARLRVKTLLQMVGDAAAGMEYLESKCCIHRDLAARNCLVTEKNVLKISDFGMSREEADGVYAASGGLRQVPVKWTAPEALNYGRYSSESDVWSFGILLWETFSLGASPYPNLSNQQTREFVEKGGRLPCPELCPDAVFRLMEQCWAYEPGQRPSFSTIYQELQSIRKRHR
Fes kinase activity (autophosphorylation and cortactin phosphorylation): regained kinase activity to a level approaching wild-type

B5: G/V: Fes mutant, conserved glycine residue (G463) mutated to valine (protein, UniProt P07332 1-822, looked up, variant G463V)
Tyrosine-protein kinase …: MGFSSELCSPQGHGVLQQMQEAELRLLEGMRKWMAQRVKSDREYAGLLHHMSLQDSGGQSRAISPDSPISQSWAEITSQTEGLSRLLRQHAEDLNSGPLSKLSLLIRERQQLRKTYSEQWQQLQQELTKTHSQDIEKLKSQYRALARDSAQAKRKYQEASKDKDRDKAKDKYVRSLWKLFAHHNRYVLGVRAAQLHHQHHHQLLLPGLLRSLQDLHEEMACILKEILQEYLEISSLVQDEVVAIHREMAAAAARIQPEAEYQGFLRQYGSAPDVPPCVTFDESLLEEGEPLEPGELQLNELTVESVQHTLTSVTDELAVATEMVFRRQEMVTQLQQELRNEEENTHPRERVQLLGKRQVLQEALQGLQVALCSQAKLQAQQELLQTKLEHLGPGEPPPVLLLQDDRHSTSSSEQEREGGRTPTLEILKSHISGIFRPKFSLPPPLQLIPEVQKPLHEQLWYHVAIPRAEVAELLVHSGDFLVRESQGKQEYVLSVLWDGLPRHFIIQSLDNLYRLEGEGFPSIPLLIDHLLSTQQPLTKKSGVVLHRAVPKDKWVLNHEDLVLGEQIGRGNFGEVFSGRLRADNTLVAVKSCRETLPPDLKAKFLQEARILKQYSHPNIVRLIGVCTQKQPIYIVMELVQGGDFLTFLRTEGARLRVKTLLQMVGDAAAGMEYLESKCCIHRDLAARNCLVTEKNVLKISDFGMSREEADGVYAASGGLRQVPVKWTAPEALNYGRYSSESDVWSFGILLWETFSLGASPYPNLSNQQTREFVEKGGRLPCPELCPDAVFRLMEQCWAYEPGQRPSFSTIYQELQSIRKRHR
Fes kinase activity (autophosphorylation and cortactin phosphorylation): completely inactive

B6: E469K: Fes E469K mutant (protein, UniProt P07332 1-822, looked up, variant E469K)
Tyrosine-protein kinase …: MGFSSELCSPQGHGVLQQMQEAELRLLEGMRKWMAQRVKSDREYAGLLHHMSLQDSGGQSRAISPDSPISQSWAEITSQTEGLSRLLRQHAEDLNSGPLSKLSLLIRERQQLRKTYSEQWQQLQQELTKTHSQDIEKLKSQYRALARDSAQAKRKYQEASKDKDRDKAKDKYVRSLWKLFAHHNRYVLGVRAAQLHHQHHHQLLLPGLLRSLQDLHEEMACILKEILQEYLEISSLVQDEVVAIHREMAAAAARIQPEAEYQGFLRQYGSAPDVPPCVTFDESLLEEGEPLEPGELQLNELTVESVQHTLTSVTDELAVATEMVFRRQEMVTQLQQELRNEEENTHPRERVQLLGKRQVLQEALQGLQVALCSQAKLQAQQELLQTKLEHLGPGEPPPVLLLQDDRHSTSSSEQEREGGRTPTLEILKSHISGIFRPKFSLPPPLQLIPEVQKPLHEQLWYHGAIPRAKVAELLVHSGDFLVRESQGKQEYVLSVLWDGLPRHFIIQSLDNLYRLEGEGFPSIPLLIDHLLSTQQPLTKKSGVVLHRAVPKDKWVLNHEDLVLGEQIGRGNFGEVFSGRLRADNTLVAVKSCRETLPPDLKAKFLQEARILKQYSHPNIVRLIGVCTQKQPIYIVMELVQGGDFLTFLRTEGARLRVKTLLQMVGDAAAGMEYLESKCCIHRDLAARNCLVTEKNVLKISDFGMSREEADGVYAASGGLRQVPVKWTAPEALNYGRYSSESDVWSFGILLWETFSLGASPYPNLSNQQTREFVEKGGRLPCPELCPDAVFRLMEQCWAYEPGQRPSFSTIYQELQSIRKRHR
Fes kinase activity (autophosphorylation and cortactin phosphorylation): reduced tyrosine kinase activity

From paper PMC2572732, “Structural Coupling of SH2-Kinase Domains Links Fes and Abl Substrate Recognition and Kinase Activation” (Cell, 2008)
